B1: Cell division inhibitor SulA (Escherichia coli (strain K12)), P0AFZ5 (parent)
chain: MYTSGYAHRSSSFSSAASKIARVSTENTTAGLISEVVYREDQPMMTQLLLLPLLQQLGQQSRWQLWLTPQQKLSREWVQASGLPLTKVMQISQLSPCHTVESMVRALRTGNYSVVIGWLADDLTEEEHAELVDAANEGNAMGFIMRPVSASSHATRQLSGLKIHSNLYH

Variants of: B1
Settings: with hslu_ecoli hslU

effect of a mutation on the interaction | Variant
disrupting interaction | L57F
increasing interaction | M89I

Source: IntAct's records for PubMed 12670962
